From patent publication US20180073039A1 (SINAI HEALTH SYSTEM, published 2018) come the findings set out here.

Data set [1] concerns ubiquitylated HA-PALB2 (1-103) (in vitro ubiquitylated by CRL3-KEAP1).
The next data set concerns T1, HA-PALB2 (1-103).
T1 sequence: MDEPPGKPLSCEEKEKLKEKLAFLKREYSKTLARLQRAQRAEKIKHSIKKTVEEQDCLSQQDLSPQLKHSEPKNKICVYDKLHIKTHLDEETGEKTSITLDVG

Data set [2] has as its target T2, BRCA2 (Homo sapiens breast cancer 2) (human, UniProt P51587 1-3418).
T2 construct: Endogenous protein in 293T extracts, detected by immunoblot
In words: PALB2 immunoprecipitation from 293T extracts synchronized in S or G1, immunoblot. For orientation: Immunoblotting shows a protein as a band on a membrane.

For “glutathione S-transferase (GST)-USP11 (Sus scrofa (pig) USP11)”, in data set [1], the “deubiquitylation reaction, immunoblot” value is recorded as “recombinant USP11 can directly de-ubiquitylate PALB2 (1-103)”. Consider “recombinant CRL3-KEAP1 (neddylated CUL3/RBX1 with GST-mKEAP1)”, for which the “in vitro ubiquylation of HA-PALB2 (1-103), immunoblot and mass spectrometry” value in the data set on HA-PALB2 (1-103) was “ubiquitylation of the N-terminus of PALB2 (residues 1-103; fused to a haemagglutinin (HA) epitope tag) could be readily reconstituted by recombinant CRL3-KEAP1”.

B1: PALB2 (partner and localizer of BRCA2) (other)
chain: MDEPPGKPLSCEEKEKLKEKLAFLKREYSKTLARLQRAQRAEKIKHSIKKTVEEQDCLSQQDLSPQLKHSEPKNKICVYDKLHIKTHLDEETGEKTSITLDVGPESFNPGDGPGGLPIQRTDDTQEHFPHRVSDPSGEQKQKLPSRRKKQQKRTFISQERDCVFGTDSLRLSGKRLKEQEEISSKNPARSPVTEIRTHLLSLKSELPDSPEPVTEINEDSVLIPPTAQPEKGVDTFLRRPNFTRATTVPLQTLSDSGSSQHLEHIPPKGSSELTTHDLKNIRFTSPVSLEAQGKKMTVSTDNLLVNKAISKSGQLPTSSNLEANISCSLNELTYNNLPANENQNLKEQNQTEKSLKSPSDTLDGRNENLQESEILSQPKSLSLEATSPLSAEKHSCTVPEGLLFPAEYYVRTTRSMSNCQRKVAVEAVIQSHLDVKKKGFKNKNKDASKNLNLSNEETDQSEIRMSGTCTGQPSSRTSQKLLSLTKVSSPAGPTEDNDLSRKAVAQAPGRRYTGKRKSACTPASDHCEPLLPTSSLSIVNRSKEEVTSHKYQHEKLFIQVKGKKSRHQKEDSLSWSNSAYLSLDDDAFTAPFHRDGMLSLKQLLSFLSITDFQLPDEDFGPLKLEKVKSCSEKPVEPFESKMFGERHLKEGSCIFPEELSPKRMDTEMEDLEEDLIVLPGKSHPKRPNSQSQHTKTGLSSSILLYTPLNTVAPDDNDRPTTDMCSPAFPILGTTPAFGPQGSYEKASTEVAGRTCCTPQLAHLKDSVCLASDTKQFDSSGSPAKPHTTLQVSGRQGQPTCDCDSVPPGTPPPIESFTFKENQLCRNTCQELHKHSVEQTETAELPASDSINPGNLQLVSELKNPSGSCSVDVSAMFWERAGCKEPCIITACEDVVSLWKALDAWQWEKLYTWHFAEVPVLQIVPVPDVYNLVCVALGNLEIREIRALFCSSDDESEKQVLLKSGNIKAVLGLTKRRLVSSSGTLSDQQVEVMTFAEDGGGKENQFLMPPEETILTFAEVQGMQEALLGTTIMNNIVIWNLKTGQLLKKMHIDDSYQASVCHKAYSEMGLLFIVLSHPCAKESESLRSPVFQLIVINPKTTLSVGVMLYCLPPGQAGRFLEGDVKDHCAAAILTSGTIAIWDLLLGQCTALLPPVSDQHWSFVKWSGTDSHLLAGQKDGNIFVYHYS
notes: Endogenous protein in extracts of human 293T cells, immunoprecipitated with rabbit anti-PALB2 or detected by immunoblot; NCBI NP_078951.2
B1: the binding result in data set [2] is on record as “binds”.
